The values that follow come from paper PMC9355956.

This data set concerns CC(C)C[C@H](NC(=O)[C@H](CCC(N)=O)NC(=O)[C@H](CCCCN)NC(=O)[C@H](CCCNC(=N)N)NC(=O)[C@@H]1CCCN1C(=O)[C@H](C)NC(=O)[C@H](CCCCN)NC(=O)CNC(=O)CNC(=O)[C@@H](NC(=O)[C@H](CO)NC(=O)[C@H](CCCCN)NC(=O)[C@H](CCCNC(=N)N)NC(=O)[C@H](C)NC(=O)[C@@H](NC(=O)[C@H](CCC(N)=O)NC(=O)[C@H](CCCCN(C)C)NC(=O)[C@@H](NC(=O)[C@H](CCCNC(=N)N)NC(=O)[C@H](C)N)[C@@H](C)O)[C@@H](C)O)[C@@H](C)O)C(=O)N[C@@H](C)C(=O)O. In words: purified protein, by the assay type. As to conditions: other: substrate, 20 nM LSD1.

Procedure: The activity of hSMOX, hPAOX, and LSD1 enzymes was measured using the HyPerBlu chemiluminescent reagent for the direct detection of the hydrogen peroxide product. […] Hydrogen peroxide product formation was monitored 30 min after the addition of HyPerBlu on a PHERAstar microplate reader (BMG LABTECH, Cary, NC). All compounds were spotted into the assay plates using Echo acoustic dispensing technology (BeckmanCoulter, Indianapolis, IN). Unless otherwise stated, all reactions were carried out in 384-well assay format.
2 µL/well of 2x substrate was dispensed into the assay plate followed by 2 µL/well of 2x enzyme to initiate the reactions. […] The data were fit to the 4-parameter IC50 equation in GraphPad Prism.
Briefly, 2.5 µL/well of the twofold substrate solutions prepared in buffer was added to the assay wells followed by 2.5 µL/well of the 2x enzyme to initiate the reactions.
The initial velocity data were fit to the Michaelis-Menten equation in GraphPad Prism. Y=Vmax*X/(Km+X) where Vmax is the maximal velocity, X is the substrate concentration and Km is the Michaelis-Menten constant. The kcat value was determined by dividing Vmax value by the enzyme concentration.

With LSD1 (Homo sapiens), the Km was determined as 3.8 ± 0.35 µM.

A word on the Km: it is the concentration of substrate that gives half-maximal velocity.
